This data set addresses T1, ZafA ZF3-6 (Aspergillus fumigatus) (UniProt Q4WT96).
T1 sequence: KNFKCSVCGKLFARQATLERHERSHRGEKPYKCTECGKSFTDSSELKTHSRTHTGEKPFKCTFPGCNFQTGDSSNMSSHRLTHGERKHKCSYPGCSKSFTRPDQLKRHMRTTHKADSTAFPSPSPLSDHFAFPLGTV
Description: EMSA. In general terms: A gel shift assay detects complexes by their altered migration in electrophoresis.

Like-named read-outs stand apart in the source and are kept apart here.

“ATGTCCGCACGGAGAGCCACAAACGAGCGGGGCCCCGTACGTGCTCTCCTACCCCAGGATCGCATCCCCGCATAGCTGAACATCTATATAAAGACCCCCAAGGTTCTCAGTCTCACCAACATCATCAACCAACAATCAACAGTTCTCTACTCAGTTAATTAGAACTCTTCCAATCCTATCACCTCGCCTCACCATGGCCATCTAGAGGTACCA (double strand) [PalcA wild type 213 bp EMSA fragment]”: the binding entry (EMSA buffer 25 mM Tris-HCl pH 8, 50 mM KCl, 1 mM MgCl2, 12.5% glycerol, 1 mM DTT, 0.2 ug BSA, protein dialyzed in buffer with 10 uM ZnCl2, 30 C (EMSA 1 h …)) is “binds”. Turning to “TGGTACCTCTAGATGGCCATGGTGAGGCGAGGTGATAGGATTGGAAGAGTTCTAATTAACTGAGTAGAGAACTGTTGATTGTTGGTTGATGATGTTGGTGAGACTGAGAACTGAGGGGGTCTTTATATAGATGTTCAGCTATGCGGGGATGCGATCCTGGGGTAGGAGAGCACGTACGGGGCCCCGCTCGTTTGTGGCTCTCCGTGCGGACAT (double strand) [PalcA mutant (CAAGGT to CTCAGT)]”, the binding result is listed as “no binding”.

(Values after paper PMC6070888.)
